Substitutions are numbered along the chain they refer to. Several values for one entry are separate records, joined by “and”; a condition that tells them apart may be missing. Equal values may be shown once. Read-outs that look alike come from different tables or passages of the source. Where no end group is shown, it is not given here.
T1: TPR domain (residues 166–330) of human AIP, WT (Homo sapiens, UniProt O00170)
T1 construct: The TPR domain (residues 166–330) of human AIP; His tag (PreScission cleavable) (cleaved yes); made in house
T1 sequence (O00170 166-330): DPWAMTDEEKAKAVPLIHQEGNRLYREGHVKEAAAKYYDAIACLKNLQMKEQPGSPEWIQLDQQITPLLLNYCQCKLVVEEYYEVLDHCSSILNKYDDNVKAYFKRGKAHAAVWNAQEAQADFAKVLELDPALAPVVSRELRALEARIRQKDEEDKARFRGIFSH

T2: AIP TPR-domain R304A mutant (Homo sapiens, UniProt O00170, R304A)
T2 construct: The TPR domain (residues 166–330) of human AIP; His tag (PreScission cleavable) (cleaved yes); made in house
T2 sequence (O00170 166-330 R304A): T1 sequence (O00170 166-330) with R139A

T3: AIP TPR-domain R304Q mutant (Homo sapiens, UniProt O00170, R304Q)
T3 construct: The TPR domain (residues 166–330) of human AIP; His tag (PreScission cleavable) (cleaved yes); made in house
T3 sequence (O00170 166-330 R304Q): T1 sequence (O00170 166-330) with R139Q

T4: TPR domain of human AIP, R304Q (disease-associated missense mutation) (human)
T4 sequence (O00170 166-330 with R304Q, looked up): T1 sequence (O00170 166-330) with R139Q

B1: GSGPTIEEVD peptide (human HSP70 C-terminus) (peptide)
peptide: GSGPTIEEVD
notes: C-terminus of human HSP70; also called HSP70 peptide
B2: EDASRMEEVD peptide (human HSP90β C-terminus) (peptide)
peptide: EDASRMEEVD
notes: extreme C-terminus of human HSP90β; Only SRMEEVD was visible in the crystal structure
B3: TLEELDW peptide (PDE4A5) (peptide)
peptide: TLEELDW
notes: also called TLEELDW (hPDE4A5); PDE4A5 peptide
B4: full-length AIP: full-length aryl hydrocarbon receptor interacting protein, tested on HSP90 ATPase activity (protein, UniProt O00170 1-330, looked up)
chain: MADIIARLREDGIQKRVIQEGRGELPDFQDGTKATFHYRTLHSDDEGTVLDDSRARGKPMELIIGKKFKLPVWETIVCTMREGEIAQFLCDIKHVVLYPLVAKSLRNIAVGKDPLEGQRHCCGVAQMREHSSLGHADLDALQQNPQPLIFHMEMLKVESPGTYQQDPWAMTDEEKAKAVPLIHQEGNRLYREGHVKEAAAKYYDAIACLKNLQMKEQPGSPEWIQLDQQITPLLLNYCQCKLVVEEYYEVLDHCSSILNKYDDNVKAYFKRGKAHAAVWNAQEAQADFAKVLELDPALAPVVSRELRALEARIRQKDEEDKARFRGIFSH
modifications: full-length
B5: TPR domain (residues 166–330) of human AIP (aryl hydrocarbon receptor interacting protein), wild type (domain or fragment, UniProt O00170 166-330, looked up)
chain: T1 sequence (O00170 166-330)
notes: Residues Asp 172 to Arg 325 were visible in the TOMM20 peptide structure; also called AIP TPR-domain; WT
B6: MEEVD peptide (HSP90) (peptide)
peptide: MEEVD
notes: extreme C-terminal five residues of HSP90; also called MEEVD (HSP90)
B7: AQSLAEDDVE peptide (human TOMM20 C-terminus) (peptide)
peptide: AQSLAEDDVE
notes: extreme C-terminus of human TOMM20; Only AEDDVE was visible in the crystal structure

Experiments:
[1] = target: T1, TPR domain (residues 166–330) of human AIP, WT; experiment: Isothermal titration calorimetry, wild-type AIP TPR-domain; format: binding; conditions: ITC; for N (stoichiometry): first value where two are printed
Description: (§1) The TPR domain (residues 166–330) of human AIP was expressed as a PreScission cleavable His-tagged protein from pTWO-E (pET-17b derived; personal communication, A. W. Oliver, Sussex University). The TPR domain was purified by talon-affinity chromatography (Clontech, Oxford, UK), then concentrated and desalted on a HIPrep 26/10 desalting column equilibrated in 20 mM Tris pH 7.5 containing 1 mM EDTA. The sample was then cleaved overnight with GST-tagged PreScision protease. The cleaved protein was subsequently passed through a GST column equilibrated in 20 mM Tris pH 7.5, 1 mM EDTA and 150 mM NaCl and then through a second Talon column to remove any remaining uncleaved protein. The flow through was then concentrated and subjected to superdex 75HR gel-filtration chromatography equilibrated in 20 mM Tris pH 7.5, 1 mM EDTA, 1 mM DTT and 500 mM NaCl. Pure TPR domain were concentrated and then desalted on a HIPrep 26/10 column equilibrated in 20 mM Tris pH 7.5 containing 1 mM EDTA. The protein was stored frozen at 2 mg ml^−1.
(§2) The heat of interaction was measured on an ITC200 microcalorimeter (Microcal), with a cell volume of 200 µL, under the same buffer conditions (20 mM Tris, pH 7.5, containing 5 mM NaCl) at 30°C. Twenty 1.9 µL aliquots of AIP TPR-domain at 350 µM were injected into 30 µM of human HSP90β. For peptide interactions twenty 1.9 µL aliquots of peptide ranging from 350 to 600 µM were injected into 30 µM of AIP TPR-domain. Heats of dilution were determined in a separate experiment by diluting protein or peptide into buffer, and the corrected data were fitted using a non-linear least-squares curve-fitting algorithm (Microcal Origin) with three floating variables: stoichiometry, binding constant and change in enthalpy of interaction. ATPase assays were previously described [44]–[46].

[2] = target: AIP TPR-domain E192R mutant; experiment: Isothermal titration calorimetry, E192R AIP TPR-domain; format: binding, human; conditions: ITC, 20 mM Tris pH 7.5, 5 mM NaCl, 30°C, 350 µM AIP TPR injected into 30 µM HSP90β
Description: as §1, with “Pure TPR domain were concentrated and then desalted on a HIPrep 26/10 column equilibrated in 20 mM Tris pH 7.5 containing 1 mM EDTA. The protein was stored frozen at 2 mg ml^−1.” left out
The heat of interaction was measured on an ITC200 microcalorimeter (Microcal), with a cell volume of 200 µL, under the same buffer conditions (20 mM Tris, pH 7.5, containing 5 mM NaCl) at 30°C. […] Heats of dilution were determined in a separate experiment by diluting protein or peptide into buffer, and the corrected data were fitted using a non-linear least-squares curve-fitting algorithm (Microcal Origin) with three floating variables: stoichiometry, binding constant and change in enthalpy of interaction. […]

[3] = target: T5, full-length human HSP90β (human, UniProt P08238 1-724); experiment: ITC; twenty 1.9 µL aliquots of AIP TPR-domain at 350 µM injected into 30 µM human HSP90β; 20 mM Tris pH 7.5, 5 mM NaCl, 30°C
T5 construct: HSP90β, human, full length; also called FL-hHSP90β; intact HSP90

[4] = target: T2, AIP TPR-domain R304A mutant; experiment: Isothermal titration calorimetry, R304A AIP TPR-domain; format: binding; conditions: ITC, 20 mM Tris pH 7.5, 5 mM NaCl, 30°C, peptide 350-600 µM injected into 30 µM TPR-domain
Description: as §1, §2

[5] = target: T3, AIP TPR-domain R304Q mutant; experiment: Isothermal titration calorimetry, R304Q AIP TPR-domain; format: binding; conditions: ITC, 20 mM Tris pH 7.5, 5 mM NaCl, 30°C, peptide 350-600 µM injected into 30 µM TPR-domain
Description: as §1, §2

[6] = tested on: AIP; conditions: cited from earlier work
Excerpt: Recently, mutations in aryl hydrocarbon receptor interacting protein (AIP), [2] have been linked to familial isolated pituitary adenomas (FIPA) [3]–[5], a condition most often characterized by young-onset growth hormone and prolactin-secreting pituitary tumors (reviewed by), which leads to acromegaly and gigantism. The human AIP gene encodes a 37 kDa protein of 330 amino acids that, based on similarities to other proteins, is predicted to have an N-terminal immunophilin-like domain [7] and a C-terminal tetratricopeptide repeat (TPR) domain. Typically, TPR domains consist of ...

[7] = target: TPR domain of human AIP, R304A mutant (human); experiment: ITC; twenty 1.9 µL aliquots of peptide (350 to 600 µM) injected into 30 µM AIP TPR-domain; 20 mM Tris pH 7.5, 5 mM NaCl, 30°C
[8] = target: T4, TPR domain of human AIP, R304Q (disease-associated missense mutation) (human); experiment: as above
[9] = target: B5; experiment: as above; conditions: both partners purified
[10] = tested on: HSP90; experiment: HSP90 ATPase assay; format: biochemical; conditions: 20-fold molar excess of full-length AIP
[11] = target: T5, full-length human HSP90β; experiment: ITC; twenty 1.9 µL aliquots of AIP TPR-domain at 350 µM injected into 30 µM human HSP90β; 20 mM Tris pH 7.5, 5 mM NaCl, 30°C; conditions: both partners purified
[12] = target: T5, full-length human HSP90β; experiment: as above; conditions: both partners purified; remark: listed apart in the source
[13] = 20 mM Tris pH 7.5, 5 mM NaCl, 30°C

T5 sequence (P08238 whole entry): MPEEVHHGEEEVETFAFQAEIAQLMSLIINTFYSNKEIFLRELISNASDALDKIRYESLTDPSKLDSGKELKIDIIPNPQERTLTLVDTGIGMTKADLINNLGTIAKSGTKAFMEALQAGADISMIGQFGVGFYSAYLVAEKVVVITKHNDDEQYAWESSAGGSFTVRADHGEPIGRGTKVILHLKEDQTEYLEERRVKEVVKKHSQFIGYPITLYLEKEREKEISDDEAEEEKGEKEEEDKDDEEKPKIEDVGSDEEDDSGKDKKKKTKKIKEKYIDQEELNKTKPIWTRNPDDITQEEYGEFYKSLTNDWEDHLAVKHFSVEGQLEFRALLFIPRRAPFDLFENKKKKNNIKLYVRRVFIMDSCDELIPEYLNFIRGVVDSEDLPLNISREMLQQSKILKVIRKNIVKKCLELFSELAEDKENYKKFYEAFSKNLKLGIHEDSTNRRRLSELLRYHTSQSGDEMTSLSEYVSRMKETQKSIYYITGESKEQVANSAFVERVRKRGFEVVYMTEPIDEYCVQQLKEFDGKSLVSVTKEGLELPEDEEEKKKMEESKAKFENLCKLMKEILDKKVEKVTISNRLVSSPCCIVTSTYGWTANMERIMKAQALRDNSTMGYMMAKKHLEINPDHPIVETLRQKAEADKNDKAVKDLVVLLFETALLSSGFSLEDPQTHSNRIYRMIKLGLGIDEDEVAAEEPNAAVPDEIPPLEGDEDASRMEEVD

FL-hHSP90β: full-length human HSP90β chaperone protein
ΔH [1, 13]: -4.554 kcal/mol | ΔS [1, 13]: 7.29 Cal/mol/deg | N (stoichiometry) ([1]; 20 mM Tris pH 7.5, 5 mM NaCl, 30°C, for HSP90β given as AIP:HSP90): 0.30 | N (stoichiometry) ([1]; 20 mM Tris pH 7.5, 5 mM NaCl, 30°C, for HSP90β given as AIP:HSP90, listed as HSP90β): 0.3 | Kd ([1]; 20 mM Tris pH 7.5, 5 mM NaCl, 30°C, peptide 350-600 µM injected into 30 µM AIP TPR-domain (for HSP90β: 350 µM AIP TPR into 30 µM HSP90β)): 13.3 ± 1.8 µM | Kd [2]: 11.1 ± 1.3 µM

TPR domain of human AIP, E192R mutant (domain or fragment)
Kd [3]: 11.1 µM | dH [3]: -4.11 kcal/mol | stoichiometry N [3]: 0.47

CC[C@H](C)[C@H](NC(=O)[C@@H](NC(=O)[C@@H]1CCCN1C(=O)CNC(=O)[C@H](CO)NC(=O)CN)[C@@H](C)O)C(=O)N[C@@H](CCC(=O)O)C(=O)N[C@@H](CCC(=O)O)C(=O)N[C@H](C(=O)N[C@@H](CC(=O)O)C(=O)O)C(C)C [GSGPTIEEVD]
Kd [4]: 22.8 ± 1.6 µM | Kd [5]: 31.1 ± 2.6 µM

CSCC[C@H](NC(=O)[C@H](CCCNC(=N)N)NC(=O)[C@H](CO)NC(=O)[C@H](C)NC(=O)[C@H](CC(=O)O)NC(=O)[C@@H](N)CCC(=O)O)C(=O)N[C@@H](CCC(=O)O)C(=O)N[C@@H](CCC(=O)O)C(=O)N[C@H](C(=O)N[C@@H](CC(=O)O)C(=O)O)C(C)C [EDASRMEEVD]
Kd ([1]; range of the two titrations as given in the text): 14.4 to 18.6 µM | Kd [4]: 15.6 ± 0.85 µM | Kd [5]: 16.2 ± 1.1 µM

CO[C@H]1C[C@@H]2CC[C@@H](C)[C@@](O)(O2)C(=O)C(=O)N2CCCC[C@H]2C(=O)O[C@H]([C@H](C)C[C@@H]2CC[C@@H](O)[C@H](OC)C2)CC(=O)[C@H](C)/C=C(\C)[C@@H](O)[C@@H](OC)C(=O)[C@H](C)C[C@H](C)/C=C/C=C/C=C/1C [rapamycin]
Binding to AIP [6]: does not bind

AQSLAEDDVE [AQSLAEDDVE]
Kd [4]: 16.6 ± 0.5 µM | Kd [5]: 22.5 ± 2.2 µM

C=CC[C@@H]1/C=C(\C)C[C@H](C)C[C@H](OC)[C@H]2O[C@@](O)(C(=O)C(=O)N3CCCC[C@H]3C(=O)O[C@H](/C(C)=C/[C@@H]3CC[C@@H](O)[C@H](OC)C3)[C@H](C)[C@@H](O)CC1=O)[C@H](C)C[C@@H]2OC [FK506]
Binding to AIP [6]: does not bind

B1
Kd [7]: 22.8 µM | dH [7]: -5.46 kcal/mol | stoichiometry N [7]: 0.66 | Kd [8]: 31.1 µM | dH [8]: -5.5 kcal/mol | stoichiometry N [8]: 0.84 | Kd [9]: 18.1 ± 1.9 µM | dH [9]: -6.35 kcal/mol | stoichiometry N [9]: 0.63

B2
Kd [7]: 15.6 µM | dH [7]: -6.44 kcal/mol | stoichiometry N [7]: 0.96 | Kd [8]: 16.2 µM | dH [8]: -6.42 kcal/mol | stoichiometry N [8]: 0.98 | Kd [9]: 18.6 µM and 14.4 µM | dH [9]: -5.04 kcal/mol and -3.92 kcal/mol | stoichiometry N [9]: 1.2 and 1.1

B3
Kd [9]: 64.5 ± 3.2 µM | dH [9]: -4.42 kcal/mol | stoichiometry N [9]: 0.89

B4
Effect on the ATPase activity of HSP90 [10]: did not influence

B5
stoichiometry N [11]: 0.5 | Kd [12]: 13.3 ± 1.8 µM | dH [12]: -4.55 kcal/mol | stoichiometry N [12]: 0.3

DDTSRMEEVD (extreme C-terminus of human HSP90α) [DDTSRMEEVD peptide (human HSP90α C-terminus)]
Kd [9]: 9.5 ± 0.6 µM | dH [9]: -3.53 kcal/mol | stoichiometry N [9]: 1.2

B6
Kd [9]: 12.6 ± 1.6 µM | dH [9]: -4.14 kcal/mol | stoichiometry N [9]: 1

B7
Kd [7]: 16.6 µM | dH [7]: -4.51 kcal/mol | stoichiometry N [7]: 0.69 | Kd [8]: 22.5 µM | dH [8]: -6.07 kcal/mol | stoichiometry N [8]: 0.66 | Kd [9]: 12.3 ± 0.5 µM | dH [9]: -6.77 kcal/mol | stoichiometry N [9]: 0.87

Reference: PMC3534021, “Structure of the TPR Domain of AIP: Lack of Client Protein Interaction with the C-Terminal α-7 Helix of the TPR Domain of AIP Is Sufficient for Pituitary Adenoma Predisposition” (PLoS ONE, 2012)
